Series [1] in a line: folding stability dG unfold (combined trypsin and chymotrypsin); higher = more stable. A digest of the protocol:
(§1)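 Mini-proteins designed to be under 80 residues and free of cysteine were carried in a PA-tagged cDNA display construct and digested with trypsin and with chymotrypsin. Each protease was applied at 11 threefold-diluted concentrations, alongside a no-protease condition, before sequencing. K50 came from Bayesian fitting of the sequencing counts, and unfolding free energy was obtained by comparing it with a sequence-predicted unfolded-state K50 and a shared folded-state K50, for each protease separately or for both together. Designs were retained only if their AlphaFold2 dimer inter-PAE exceeded 15.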

Series [2] in a line: folding stability dG unfold from trypsin proteolysis; higher = more stable. A digest of the protocol: as §1
The nature of series [3]: folding stability dG unfold from chymotrypsin proteolysis; higher = more stable. The method in brief:
as §1

This note sets out measurements from the supplement of paper PMC12764529.

± gives the half width of the 95% confidence interval.

Take “SAGGSAGGSAGMKEGEIVEVTVPIPENGEEIKVKVVAPPSLTEEEARALAEEKAKEIYEKSAGGSAGGSAGG [r11_355_JUSTAS]”: the entries for the “folding stability dG unfold” value in series [1], in series [2] and in series [3] were 0.595 ± 0.077 kcal/mol, 0.0651 ± 0.062 kcal/mol and 0.99 ± 0.04 kcal/mol, respectively.
For “SAGGSAGGSAGMKIEVFPNTIKIYPENGKVLTFEAPDFGEEAIKEIAKAFPNAKIEPVEPSAGGSAGGSAGG [r17_545_TrMRF]” the same measures were -0.189 ± 0.25 kcal/mol, -0.338 ± 0.13 kcal/mol and -0.335 ± 0.16 kcal/mol.
Taken in the same sequence, the figures for “SAGGSAGGSAGMKIKTKNGEVIEIKVDKKTGKIEITFPDGKKITIDAPNLTIEDIKKLLESAGGSAGGSAGG [r11_729_TrMRF]” were 2.36 ± 0.051 kcal/mol, 2.47 ± 0.064 kcal/mol and 2.34 ± 0.047 kcal/mol.
For “SAGGSAGGSAGMKPGETYLVRIRVKVDGKWYEKEVKFKSLEELKKAGIENIEEIEIRKLPSAGGSAGGSAGG [r17_290_TrROS_Hall]” the same measures were 2.47 ± 0.16 kcal/mol, 1.99 ± 0.033 kcal/mol and 2.72 ± 0.075 kcal/mol.
For “SAGGSAGGSAGMKPNEPDLVLLTTTVTLTTTETTTDEDGNTYTTTTTTTLTTTTLLPRGTSAGGSAGGSAGG [r17_523_TrROS_Hall]”, the “folding stability dG unfold” value turned out to be 3.63 ± 0.1 kcal/mol in series [1], 2.77 ± 0.17 kcal/mol in series [2] and 3.94 ± 0.087 kcal/mol in series [3].
Taken in the same sequence, the figures for “SAGGSAGGSAGMKSTVTQPGDTWTITITDPETGEVTTYTLTPAQLGELAASSRPVAVAPGSAGGSAGGSAGG [r11_741_JUSTAS]” were 1.24 ± 0.058 kcal/mol, 0.614 ± 0.053 kcal/mol and 1.5 ± 0.086 kcal/mol.
For “SAGGSAGGSAGMKTITKKVKSEEEAKKLAEELKKKGYKVEVEVKKDPKTGNYIVTITIELPESAGGSAGGSA [r18_455_JUSTAS]” the same measures were 3.91 ± 0.39 kcal/mol, 3.32 ± 0.18 kcal/mol and 3.89 ± 0.19 kcal/mol.
Taken in the same sequence, the figures for “SAGGSAGGSAGMKTYTAEEIKNLPPGAKVIEVDGKLKIEIDGKIYTIEPGETVEIEPLEESAGGSAGGSAGG [r17_91_TrROS_Hall]” were 1.89 ± 0.11 kcal/mol, 1.57 ± 0.078 kcal/mol and 2.04 ± 0.043 kcal/mol.
As to “SAGGSAGGSAGMKVEIEVYELPGGERPVKITVTYENKPKEYEKEAETEEEAEEFAKELLESAGGSAGGSAGG [r11_560_JUSTAS]”, the “folding stability dG unfold” value in series [1] is -0.0487 ± 0.57 kcal/mol; in series [2], -0.237 ± 0.23 kcal/mol; in series [3], 0.039 ± 0.58 kcal/mol.
Taken in the same sequence, the figures for “SAGGSAGGSAGMKVELSVAPDPATGEPVLLFHFEDFTLALNPNTGAIGVYLKDEVELFELSAGGSAGGSAGG [r17_544_TrMRF]” were 2.03 ± 0.14 kcal/mol, 2 ± 0.13 kcal/mol and 1.98 ± 0.1 kcal/mol.
For “SAGGSAGGSAGMKVLVLRIRIERPEEELSEEDRAKLPPVRIEIELVEVELPPEVEVREEESAGGSAGGSAGG [r17_310_TrROS_Hall]” the same measures were 3.43 ± 0.2 kcal/mol, 2.44 ± 0.14 kcal/mol and 3.86 ± 0.11 kcal/mol.
“SAGGSAGGSAGMLWIHDPESGTLVMLHPKPDGEVNVQVWQFDPDNGKPEIKTVPADNIEASAGGSAGGSAGG [r11_285_TrROS]”: the “folding stability dG unfold” value in series [1] was 0.924 ± 0.091 kcal/mol; in series [2], 0.376 ± 0.046 kcal/mol; in series [3], 1.22 ± 0.18 kcal/mol.
For “SAGGSAGGSAGMMVVRAKIKLPNGEVLEIENMSLEEILALAKEKGYEIVDIEVVAPDEEPSAGGSAGGSAGG [r11_283_TrMRF]” the same measures were 4.37 ± 0.26 kcal/mol, 4.77 ± 0.77 kcal/mol and 4.07 ± 0.14 kcal/mol.
Taken in the same sequence, the figures for “SAGGSAGGSAGMNITITFPDGTVVEIPDVPPEYADVTPEKLKEEVLKKYPNVNVKVSPNGSAGGSAGGSAGG [r17_42_JUSTAS]” were 0.101 ± 0.22 kcal/mol, 0.302 ± 0.055 kcal/mol and 0.127 ± 0.038 kcal/mol.
For “SAGGSAGGSAGMNKKGKYTVIEELVINPKTNYLFKKKVTIYPDGKIEVKSELLGPILPTESAGGSAGGSAGG [r11_226_TrMRF]” the same measures were 1.03 ± 0.06 kcal/mol, 0.336 ± 0.051 kcal/mol and 1.4 ± 0.067 kcal/mol.
As to “SAGGSAGGSAGMPIEKALEQADKNGRPVQIRVPNGRDIYITVKYKNGKYKIEIMPAEEIKSAGGSAGGSAGG [r17_463_TrROS]”, the “folding stability dG unfold” value in series [1] was 1.51 ± 0.18 kcal/mol; in series [2], 1.09 ± 0.047 kcal/mol; in series [3], 1.89 ± 0.085 kcal/mol.
“SAGGSAGGSAGMPPPVVVEPKRTSVVPESGLVIIPVTVFNPANGKATLTTYLYDPATGKLVLSAGGSAGGSA [r18_228_JUSTAS]”: the “folding stability dG unfold” value in series [1] turned out to be 1.72 ± 0.12 kcal/mol; in series [2] it was 0.734 ± 0.17 kcal/mol; in series [3], 2.17 ± 0.058 kcal/mol.
As to “SAGGSAGGSAGMRKYTWPFRIPLGGKPFEIRVEMEYDPSSGKHRIEITPEAKDLIKKKIFSAGGSAGGSAGG [r11_91_TrROS]”, the results for the “folding stability dG unfold” value in series [1], in series [2] and in series [3] were 0.875 ± 0.058 kcal/mol, 0.59 ± 0.069 kcal/mol and 0.839 ± 0.088 kcal/mol, respectively.
For “SAGGSAGGSAGMRLLTVEYFDENGNPLSVEEIELYIERPPPPFLELEIDPRTGEPRFTGLSAGGSAGGSAGG [r17_348_JUSTAS]” the same measures were 1.36 ± 0.14 kcal/mol, 1.01 ± 0.078 kcal/mol and 1.68 ± 0.068 kcal/mol.
With “SAGGSAGGSAGMSTTPVAYKFTFTLPGGETLEREGTDVAALKEALKAEYGAVEITVTPVSSAGGSAGGSAGG [r17_508_JUSTAS]”, the “folding stability dG unfold” value in series [1] was 2.17 ± 0.1 kcal/mol; in series [2], 2.2 ± 0.042 kcal/mol; in series [3] it was 2.07 ± 0.12 kcal/mol.
Taken in the same sequence, the figures for “SAGGSAGGSAGMTFVITDKNGKETTISLEEAAKLLGIPVEEITEEELKEFLEKKVKTIEKISSAGGSAGGSA [r18_403_JUSTAS]” were 2.18 ± 0.17 kcal/mol, 0.898 ± 0.074 kcal/mol and 2.6 ± 0.046 kcal/mol.
For “SAGGSAGGSAGMTIEELKAKGYKVEVVKLPDSPEEVVVVTYPVPPGGIEKSVIPLSEVKLSAGGSAGGSAGG [r17_311_JUSTAS]” the same measures were 0.375 ± 0.052 kcal/mol, -0.00127 ± 0.025 kcal/mol and 0.601 ± 0.048 kcal/mol.
For “SAGGSAGGSAGMTIKEDPKTGTRVVRLPDGSVLYIEEKGDKIKKVYSDPVPPVPPGNPALASAGGSAGGSAG [r3_406_JUSTAS]” the same measures were 0.574 ± 0.061 kcal/mol, 0.217 ± 0.026 kcal/mol and 0.734 ± 0.048 kcal/mol.
On to “SAGGSAGGSAGMTIQIEILTTGDLEETKKKLEEELKKKYPSSLKVIIKLSHVPASEAPSDLGSAGGSAGGSA [r18_498_JUSTAS]”, for which the entries for the “folding stability dG unfold” value in series [1], in series [2] and in series [3] were 1.13 ± 0.14 kcal/mol, 0.969 ± 0.025 kcal/mol and 1.19 ± 0.033 kcal/mol, respectively.
For “SAGGSAGGSAGMTLEELERLGYKVEVFRHPDTPEVYVRVEYPVPPGGLKRAVIPLKDVKLSAGGSAGGSAGG [r17_311_TrMRF]” the same measures were 0.499 ± 0.039 kcal/mol, -1.35 ± 0.52 kcal/mol and 0.93 ± 0.077 kcal/mol.
As to “SAGGSAGGSAGMTLEELLRKAKPGQTLTLRVRVVERNEDGSLSEREFTFTFRLELKPEDLSAGGSAGGSAGG [r11_347_TrROS_Hall]”, the “folding stability dG unfold” value in series [1] worked out at 3.15 ± 0.21 kcal/mol; in series [2], 2.55 ± 0.077 kcal/mol; in series [3], 3.61 ± 0.06 kcal/mol.
Taken in the same sequence, the figures for “SAGGSAGGSAGMTLEIEVDPDNKVIELKIYIGGKPVEMTIVVTPNSGYIRIPDGGWIPIESAGGSAGGSAGG [r11_395_TrROS]” were 2.85 ± 0.083 kcal/mol, 2.1 ± 0.053 kcal/mol and 3.37 ± 0.065 kcal/mol.
For “SAGGSAGGSAGMTLKVEVKVKVKVFDENGKLVREEEVTVEVEIELEPAPELRFLSEEELKSAGGSAGGSAGG [r17_325_TrROS_Hall]”, the “folding stability dG unfold” value amounted to 2.12 ± 0.11 kcal/mol in series [1], 1.24 ± 0.053 kcal/mol in series [2] and 2.63 ± 0.057 kcal/mol in series [3].
For “SAGGSAGGSAGMTLLVKNEDGYLVKIEITEVEVDENGELHLKVKVEVLPPLEEVEEVEEESAGGSAGGSAGG [r17_536_TrROS_Hall]” the same measures were 1.65 ± 0.17 kcal/mol, 1.4 ± 0.076 kcal/mol and 1.79 ± 0.054 kcal/mol.
Taken in the same sequence, the figures for “SAGGSAGGSAGMTLRLKIRVYDPETREEVEEKEIEVELPPGASLEELLAALPPEQVEVEFSAGGSAGGSAGG [r17_339_TrROS_Hall]” were 0.848 ± 0.15 kcal/mol, 0.534 ± 0.12 kcal/mol and 1.1 ± 0.2 kcal/mol.
Taken in the same sequence, the figures for “SAGGSAGGSAGMTLTLEFTDPEVAIPLAEKLAEELGLELVEIEEREEGERPVYLVTLKVPSAGGSAGGSAGG [r11_232_JUSTAS]” were 1.61 ± 0.043 kcal/mol, 1.63 ± 0.056 kcal/mol and 1.52 ± 0.021 kcal/mol.
Turning to “SAGGSAGGSAGMTLTVTSPSSDTPIGTIELPSSLSEEELEAAVEAVRAALPPDVTVEVTGSAGGSAGGSAGG [r11_1081_JUSTAS]”, the “folding stability dG unfold” value is 1.13 ± 0.093 kcal/mol in series [1], 1.41 ± 0.084 kcal/mol in series [2] and 0.954 ± 0.046 kcal/mol in series [3].
For “SAGGSAGGSAGMTRTVTFTITDPNSSNTTTITVPTTSEQDVAAAKAALKAANPNVTITLTSAGGSAGGSAGG [r11_233_JUSTAS]” the same measures were 0.718 ± 0.076 kcal/mol, 0.3 ± 0.12 kcal/mol and 0.954 ± 0.092 kcal/mol.
Take “SAGGSAGGSAGMTVTTITKTYPFDPNKSLSFTVPPGATITDKKTDADIAKGTVTVTVTVASAGGSAGGSAGG [r11_701_JUSTAS]”: the results for the “folding stability dG unfold” value in series [1], in series [2] and in series [3] were 0.436 ± 0.13 kcal/mol, 0.345 ± 0.053 kcal/mol and 0.355 ± 0.13 kcal/mol, respectively.
Taken in the same sequence, the figures for “SAGGSAGGSAGMTVTVPPDLDPESAIAALKAAAPASVKTVTLTIVDGEGPTTTVTVDITGSAGGSAGGSAGG [r17_215_JUSTAS]” were 0.00145 ± 0.096 kcal/mol, -0.402 ± 0.18 kcal/mol and 0.209 ± 0.11 kcal/mol.
